Results published in the supplement of paper PMC6755084.

B1: minF1; the commonest letter at each place (parent)
chain: GAGACCGCAACTGAAAAGTTGTTATCAGAAATGGATGGGTTGAATTTCTGCACGTAGAAGCAAAAGGC
B2: minF1; a variant is named by its letters at N, in order (parent)
chain: GAGACCGCAACTGAAAAGTTGTTATCAGAAATGNNNGGNTNNNTTTCTGCACGTAGAAGCAAAAGGC
B3: minF1; a variant is named by its letters at N, in order (parent)
chain: GAGACCGCAACTGAAAAGTTGTTANNNNAANGNNNGGTTGAATTTCTGCACGTAGAAGCAAAAGGC

Variants of: B1
Assay: fraction ligated after 30 min (ligated reads / total reads); higher = more ligase activity
Conditions: with F1*subA RNA substrate (template-directed ligation), 42 °C
Outline: (§1)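 Oligo-pool templates of minimized ligase ribozyme variants were PCR-amplified, T7-transcribed and gel-purified. Ligated and unligated RNAs were gel-separated, reverse transcribed with barcoded primers, and MiSeq-sequenced; core bases were filtered at quality ≥30. Fraction ligated per variant was ligated reads over total reads.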

Variant	fraction ligated
GAGACCGCAACTGAAAAGTTGTTATCAGAAATGGATGGGTTGGGTTTCTGCACGTAGAAGCAAAAGGC	0.00367
GAGACCGCAACTGAAAAGTTGTTATCAGAAATGGATGGGTTGGTTTTCTGCACGTAGAAGCAAAAGGC	0.00618
GAGACCGCAACTGAAAAGTTGTTATCAGAAATGGATGGGTTGGCTTTCTGCACGTAGAAGCAAAAGGC	0.00393

Variants of: B2
Assay: as above
Conditions: with F1*subA RNA substrate (template-directed ligation), 42 °C
Outline: as §1

Variant	fraction ligated
GAGACCGCAACTGAAAAGTTGTTATCAGAAATGGTGGGTTGAATTTCTGCACGTAGAAGCAAAAGGC	0.0136
GAGACCGCAACTGAAAAGTTGTTATCAGAAATGGATGGGTTCTTTTCTGCACGTAGAAGCAAAAGGC	0.00139
GAGACCGCAACTGAAAAGTTGTTATCAGAAATGGATGGGTTCATTTCTGCACGTAGAAGCAAAAGGC	0.0146
GAGACCGCAACTGAAAAGTTGTTATCAGAAATGGATGGGTTCCTTTCTGCACGTAGAAGCAAAAGGC	0.00223
GAGACCGCAACTGAAAAGTTGTTATCAGAAATGGATGGGTTCGTTTCTGCACGTAGAAGCAAAAGGC	0.00256
GAGACCGCAACTGAAAAGTTGTTATCAGAAAGGATGGGTTGAATTTCTGCACGTAGAAGCAAAAGGC	0.0137
GAGACCGCAACTGAAAAGTTGTATCAGAAATGGATGGGTTGAATTTCTGCACGTAGAAGCAAAAGGC	0.228
GAGACCGCAACTGAAAAGTTGTTACAGAAATGGATGGGTTGAATTTCTGCACGTAGAAGCAAAAGGC	0.0163
GAGACCGCAACTGAAAAGTTGTTATCAGAATGGATGGGTTGAATTTCTGCACGTAGAAGCAAAAGGC	0.65
GAGACCGCAACTGAAAAGTTGTTATAGAAATGGATGGGTTGAATTTCTGCACGTAGAAGCAAAAGGC	0.0728
GAGACCGCAACTGAAAAGTTGTTATCAGAAATGGATGGGTTGCTTTCTGCACGTAGAAGCAAAAGGC	0.00735
GAGACCGCAACTGAAAAGTTGTTATCAGAAATGGATGGGTTGGTTTCTGCACGTAGAAGCAAAAGGC	0.00509
GAGACCGCAACTGAAAAGTTGTTATCAGAAATGGATGGGTTGTTTTCTGCACGTAGAAGCAAAAGGC	0.00586
GAGACCGCAACTGAAAAGTTGTTATCAGAAATGGATGGGTTGATTTCTGCACGTAGAAGCAAAAGGC	0.844
GAGACCGCAACTGAAAAGTTGTTATCAGAAATGGAGGGTTGAATTTCTGCACGTAGAAGCAAAAGGC	0.00382
GAGACCGCAACTGAAAAGTTGTTATCGAAATGGATGGGTTGAATTTCTGCACGTAGAAGCAAAAGGC	0.733
GAGACCGCAACTGAAAAGTTGTTATCAAAATGGATGGGTTGAATTTCTGCACGTAGAAGCAAAAGGC	0.52
GAGACCGCAACTGAAAAGTTGTTTCAGAAATGGATGGGTTGAATTTCTGCACGTAGAAGCAAAAGGC	0.0261
GAGACCGCAACTGAAAAGTTGTTATCAGAAATGGATGGGTTTGTTTCTGCACGTAGAAGCAAAAGGC	0.00218
GAGACCGCAACTGAAAAGTTGTTATCAGAAATGGATGGGTTTATTTCTGCACGTAGAAGCAAAAGGC	0.0473
GAGACCGCAACTGAAAAGTTGTTATCAGAAATGGATGGGTTTTTTTCTGCACGTAGAAGCAAAAGGC	0.000955
GAGACCGCAACTGAAAAGTTGTTATCAGAAATGGATGGGTTTCTTTCTGCACGTAGAAGCAAAAGGC	0.00331
GAGACCGCAACTGAAAAGTTGTTATCAGAAATGGATGGGTTACTTTCTGCACGTAGAAGCAAAAGGC	0.00239
GAGACCGCAACTGAAAAGTTGTTATCAGAAATGGATGGGTTATTTTCTGCACGTAGAAGCAAAAGGC	0.00414
GAGACCGCAACTGAAAAGTTGTTATCAGAAATGGATGGGTTAGTTTCTGCACGTAGAAGCAAAAGGC	0.00461
GAGACCGCAACTGAAAAGTTGTTATCAGAAATGGATGGGTTAATTTCTGCACGTAGAAGCAAAAGGC	0.175
GAGACCGCAACTGAAAAGTTGTTATCAGAAATGATGGGTTGAATTTCTGCACGTAGAAGCAAAAGGC	0.0281
GAGACCGCAACTGAAAAGTTGTTATCAGAAATGGATGGTTGAATTTCTGCACGTAGAAGCAAAAGGC	0.023

Variants of: B3
Assay: as above
Conditions: with F1*subA RNA substrate (template-directed ligation), 42 °C
Outline: as §1

Variant	fraction ligated
GAGACCGCAACTGAAAAGTTGTTATCAGAAATGGATGGTTGATTTCTGCACGTAGAAGCAAAAGGC	0.0306
GAGACCGCAACTGAAAAGTTGTTATCAGAAATGGTGGGTTGATTTCTGCACGTAGAAGCAAAAGGC	0.0316
GAGACCGCAACTGAAAAGTTGTTATAGAAATGGAGGGTTGAATTTCTGCACGTAGAAGCAAAAGGC	0.00428
GAGACCGCAACTGAAAAGTTGTTATCAGAAATATGGGTTGAATTTCTGCACGTAGAAGCAAAAGGC	0.00623
GAGACCGCAACTGAAAAGTTGTTACAGAAATGGATGGTTGAATTTCTGCACGTAGAAGCAAAAGGC	0.0096
GAGACCGCAACTGAAAAGTTGTTATCAGAAATGGTGGGTTAATTTCTGCACGTAGAAGCAAAAGGC	0.00529
GAGACCGCAACTGAAAAGTTGTTATCAGAAAGGTGGGTTGAATTTCTGCACGTAGAAGCAAAAGGC	0.0048
GAGACCGCAACTGAAAAGTTGTATCAGAAATGGAGGGTTGAATTTCTGCACGTAGAAGCAAAAGGC	0.00151
GAGACCGCAACTGAAAAGTTGTTTCAAAATGGATGGGTTGAATTTCTGCACGTAGAAGCAAAAGGC	0.0148
